According to the supplement of paper PMC12042874:
± gives the uncertainty stated by the source.

Experiment: amyloid nucleation score (Sup35N fusion, yeast selection) (log enrichment); library NNK2; higher = more nucleation; inactive = no reads after selection
Summary of the method: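 For the nucleation score, DiMSum gave the log enrichment of output over input reads, centred on the mode score of non-aggregating sequences. Psi-negative yeast expressing Sup35N fused to peptides of 20 random codons were induced with 100 μM copper sulfate for 24 hours and grown 7 days at 30°C on medium lacking adenine and uracil. Input and output plasmid inserts were Illumina-sequenced, and sequences with under 100 input reads were excluded.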

Row | Substance | amyloid nucleation score
1 | SVSNVPRGWSLTRGLSTVPG | 0.828 ± 0.22
2 | SELRKVRCNG | 0.813 ± 0.46
3 | MLLFSLWGNYAGQVPWDRVG | -0.513 ± 0.48
4 | YMRGITHSAGCSSLAINVEH | -1.23 ± 1.1
5 | PGSNL | -0.037 ± 0.42
6 | QLICTMNFVAEYNWSALRRN | 4.55 ± 0.12
7 | NSFMPMTWLPFRSQTEKRGS | 3.73 ± 0.075
8 | VILYNGFDLSGSD | 0.286 ± 0.44
9 | EILYFSTAFYLSTWEDTIFT | inactive
10 | KDKGVCSQLYRDLVWRDEVF | -0.035 ± 0.31
11 | CFRRKGALSLIACRW | -0.03 ± 0.46
12 | DHRILILLTPQFSYDIWTVH | inactive
13 | NVFMRYTKFYMCLELGNCWG | -0.331 ± 0.5
14 | PSIDSCRGRLVVRVQIRVEN | -1.24 ± 1.1
15 | SWVLLAY | 0.45 ± 0.8
16 | TMIKSQMLYFSGLATRLRLG | 0.098 ± 0.26
17 | MSFVDEYCGGEVTISEPSMS | -0.545 ± 0.76
18 | VGRRSSKYESAELRVGSEVV | 1.71 ± 0.12
19 | LRLFFNYWSNWGATEKNYIL | -1.52 ± 1.1
20 | HRSLIIF | 1.97 ± 0.19
21 | NYEGNGRVVITLLLGSNWYR | 4.04 ± 0.086
22 | ASLLSGFNFKSVRHGLRDLG | 0.568 ± 0.24

Row | Substance | amyloid nucleation score
23 | IRRFRGLTSRSTRCSKGSKG | -0.072 ± 0.45
24 | VSFYDVH | 0.011 ± 1.1
25 | IVAEMW | 1.75 ± 0.4
26 | YWTPYCIVIH | -0.965 ± 0.78
27 | ASNMIV | -0.563 ± 0.33
28 | SNNHND | inactive
29 | EMWSISIKISGR | 0.763 ± 0.57
30 | IVFLCSRKCNVNMYGL | 10.7 ± 0.071
31 | RIQINWDEFGQDRELRVSGR | 0.75 ± 0.5
32 | WRASK | 3.23 ± 0.057
33 | SLCPCLMIIS | -0.852 ± 0.38
34 | SPKTYRRIIGIGQVAVRVCK | 0.673 ± 0.25
35 | IGCGARLEGKMMACMSRDRQ | 0.461 ± 0.64
36 | DVKWPYRLDFVKLYYIYKEG | -1.88 ± 0.53
37 | PMNFYYIAPNICGLREKLWS | 3.62 ± 0.064
38 | FRVFCMHSED | 2.47 ± 0.12
39 | CDAGFEIVLSLIN | -0.828 ± 0.74
40 | DQGVMLFRG | -0.134 ± 0.32
41 | VVKYFCDHI | 4.5 ± 0.07
42 | VDITRWIDVMVYF | -0.19 ± 0.62
43 | LSVLTNDSGLFKFGFIRCVW | -1.21 ± 0.75
44 | GLGMGDFCILVKLKANVSRC | -0.266 ± 1

Row | Substance | amyloid nucleation score
45 | RLKVVLRYLASGHWKLVA | 1.31 ± 0.41
46 | SSWSSNQNSTYTLRSYTALH | 5.2 ± 0.069
47 | RSQTSWLKDLWQRSLTSDCS | 4.62 ± 0.059
48 | ETCSAVFIN | 0.041 ± 0.62
49 | MYRVLSIKWDRHLTRVHIAW | inactive
50 | GPDLESFLRVIMQNFHDTKK | -1.54 ± 0.41
51 | ADDCLRTCSNKLKTQAGLW | 1.38 ± 0.35
52 | SYEVNIYKLRLQGSSSGF | 3.44 ± 0.066
53 | GLFCSLLCLVGAVSEKT | 5.26 ± 0.086
54 | LLCQITRVAIPCHVCGDDVA | 3.81 ± 0.13
55 | NDSSLCSSVRPIRMREEFDK | -0.099 ± 0.25
56 | MTVLV | 1.12 ± 0.26
57 | ASPLQPLSGYVIVRVAPSIT | 0.266 ± 0.51
58 | PTGYILESTYFTGQGKCAGL | -0.255 ± 1.1
59 | RIFITIRIINPPKDFFIRCY | inactive
60 | CFTKDMLSDNCVSV | -0.845 ± 1
61 | YGFGRHKNGAAMPTMYFAMS | -0.014 ± 0.41
62 | LSRVSE | -0.405 ± 0.39
63 | RSYIRFGNYVHYDQLWLFGG | 3.04 ± 0.12
64 | KGKDS | -0.037 ± 0.39
65 | VMYYEGG | -0.561 ± 0.63
66 | SHILSNVTYGLADVAFCACS | 7.542 ± 0.067

Row | Substance | amyloid nucleation score
67 | FHYRFFVVMIRGCSFWHFQL | -1.57 ± 0.49
68 | TRSTNVQLDPYFYLW | -1.16 ± 0.39
69 | PGSAIRVVSMRLWGRRRSAG | 0.458 ± 0.45
70 | TVYSGILKSY | -0.574 ± 1
71 | FSDFGMSLRISAKVEWIAMG | -1.59 ± 0.78
72 | WCEGHKSW | -0.817 ± 1
73 | VEFVVPKI | -0.586 ± 1.1
74 | DRGRSNWFRMMWIDGEHYSE | -0.492 ± 0.61
75 | IKWSLHRYYFVMFICSFIAS | -0.83 ± 0.61
76 | SWGGLSKGYCLFQSWRVVLG | 3.75 ± 0.054
77 | FLYLNAKSVRASIVWYEVKL | 8.232 ± 0.048
78 | RIEVLTLCGGEAGSLVMGIV | 1.16 ± 0.48
79 | NEVSGNGLFSIFSQSGKSYY | inactive
80 | SNPSVNLCRWIDACNSDLIT | 0.165 ± 1
81 | LLRDSVY | -0.817 ± 1.1
82 | GTQRAYGVKGKLETDLIRLK | 8.554 ± 0.059
83 | IAAVDENCRVVCQIIFLSKV | inactive
84 | NIPLLLMFHSTIWFKMHIWE | 1.51 ± 0.11
85 | GSYGQVHSWYVCDFPGWVLR | 0.438 ± 0.57
86 | GMTEWVGLAQERIYAWAKSE | 0.517 ± 0.36
